Paper PMC5712524, “Mechanism of early light signaling by the carboxy-terminal output module of Arabidopsis phytochrome B” (Nature Communications, 2017)

What was measured:
GST-PIF3 [1] = target: T1, GST-PIF3 (Arabidopsis, UniProt O80536 1-524); assay: pull-down; GST pull-down: immobilized GST-PIF3 pulls down HA-tagged PHYB in the Pr form; anti-HA immunoblot; procedure as ref. 33; conditions: one partner purified
T1 construct: the construct is not described here
T1 sequence (looked up): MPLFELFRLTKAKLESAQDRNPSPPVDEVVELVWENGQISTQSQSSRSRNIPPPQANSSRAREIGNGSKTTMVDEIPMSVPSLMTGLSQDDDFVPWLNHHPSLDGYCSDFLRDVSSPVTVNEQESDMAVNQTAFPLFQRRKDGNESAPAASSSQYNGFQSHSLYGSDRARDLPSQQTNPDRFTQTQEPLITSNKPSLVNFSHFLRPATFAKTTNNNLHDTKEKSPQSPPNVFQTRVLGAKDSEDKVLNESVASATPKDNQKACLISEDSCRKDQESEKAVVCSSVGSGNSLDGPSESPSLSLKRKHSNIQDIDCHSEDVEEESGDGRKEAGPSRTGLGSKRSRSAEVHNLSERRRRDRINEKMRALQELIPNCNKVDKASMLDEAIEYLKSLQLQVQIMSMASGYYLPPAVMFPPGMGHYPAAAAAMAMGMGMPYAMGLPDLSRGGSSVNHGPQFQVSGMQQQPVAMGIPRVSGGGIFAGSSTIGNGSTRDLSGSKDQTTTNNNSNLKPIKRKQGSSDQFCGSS

[2] = target: the molecule itself; assay: co-IP; in vitro co-immunoprecipitation: HA-tagged bait and Myc-tagged prey co-expressed in TNT T7 reticulocyte lysate, anti-HA Affinity Matrix, E buffer (50 mM Tris-HCl pH 7.5, 100 mM NaCl, 1 mM EDTA, 1 mM EGTA, 1% DMSO, 2 mM DTT, 0.1% Nonidet P-40), 4 °C 2 h; anti-Myc immunoblot
GST-PIF3 [3] = target: T1, GST-PIF3; assay: pull-down; GST pull-down: immobilized GST-PIF3 pulls down HA-tagged PHYB as apoprotein; anti-HA immunoblot; procedure as ref. 33; conditions: one partner purified

B1: PHYB18-HA (PHYB D1040V), Pr or Pfr form (natural protein, Arabidopsis, UniProt P14713 1-1172, looked up)
chain: MVSGVGGSGGGRGGGRGGEEEPSSSHTPNNRRGGEQAQSSGTKSLRPRSNTESMSKAIQQYTVDARLHAVFEQSGESGKSFDYSQSLKTTTYGSSVPEQQITAYLSRIQRGGYIQPFGCMIAVDESSFRIIGYSENAREMLGIMPQSVPTLEKPEILAMGTDVRSLFTSSSSILLERAFVAREITLLNPVWIHSKNTGKPFYAILHRIDVGVVIDLEPARTEDPALSIAGAVQSQKLAVRAISQLQALPGGDIKLLCDTVVESVRDLTGYDRVMVYKFHEDEHGEVVAESKRDDLEPYIGLHYPATDIPQASRFLFKQNRVRMIVDCNATPVLVVQDDRLTQSMCLVGSTLRAPHGCHSQYMANMGSIASLAMAVIINGNEDDGSNVASGRSSMRLWGLVVCHHTSSRCIPFPLRYACEFLMQAFGLQLNMELQLALQMSEKRVLRTQTLLCDMLLRDSPAGIVTQSPSIMDLVKCDGAAFLYHGKYYPLGVAPSEVQIKDVVEWLLANHADSTGLSTDSLGDAGYPGAAALGDAVCGMAVAYITKRDFLFWFRSHTAKEIKWGGAKHHPEDKDDGQRMHPRSSFQAFLEVVKSRSQPWETAEMDAIHSLQLILRDSFKESEAAMNSKVVDGVVQPCRDMAGEQGIDELGAVAREMVRLIETATVPIFAVDAGGCINGWNAKIAELTGLSVEEAMGKSLVSDLIYKENEATVNKLLSRALRGDEEKNVEVKLKTFSPELQGKAVFVVVNACSSKDYLNNIVGVCFVGQDVTSQKIVMDKFINIQGDYKAIVHSPNPLIPPIFAADENTCCLEWNMAMEKLTGWSRSEVIGKMIVGEVFGSCCMLKGPDALTKFMIVLHNAIGGQDTDKFPFPFFDRNGKFVQALLTANKRVSLEGKVIGAFCFLQIPSPELQQALAVQRRQDTECFTKAKELAYICQVIKNPLSGMRFANSLLEATDLNEDQKQLLETSVSCEKQISRIVGDMDLESIEDGSFVLKREEFFLGSVINAIVSQAMFLLRDRGLQLIRDIPEEIKSIEVFGVQIRIQQLLAEFLLSIIRYAPSQEWVEIHLSQLSKQMADGFAAIRTEFRMACPGEGLPPELVRDMFHSSRWTSPEGLGLSVCRKILKLMNGEVQYIRESERSYFLIILELPVPRKRPLSTASGSGDMMLMMPY
modifications: Pr or Pfr form (chromophore used not named for this experiment)
notes: Same chain as m21, with chromophore; not shown: HA, C-terminal, kept
interaction relative to that of PHYB-HA (GST-PIF3 [1]): ~0.33 fraction of wild type

B2: full-length PHYB18 (PHYB D1040V), N-terminal HA- or Myc-tagged (natural protein, Arabidopsis, UniProt P14713 1-1172, looked up)
chain: MVSGVGGSGGGRGGGRGGEEEPSSSHTPNNRRGGEQAQSSGTKSLRPRSNTESMSKAIQQYTVDARLHAVFEQSGESGKSFDYSQSLKTTTYGSSVPEQQITAYLSRIQRGGYIQPFGCMIAVDESSFRIIGYSENAREMLGIMPQSVPTLEKPEILAMGTDVRSLFTSSSSILLERAFVAREITLLNPVWIHSKNTGKPFYAILHRIDVGVVIDLEPARTEDPALSIAGAVQSQKLAVRAISQLQALPGGDIKLLCDTVVESVRDLTGYDRVMVYKFHEDEHGEVVAESKRDDLEPYIGLHYPATDIPQASRFLFKQNRVRMIVDCNATPVLVVQDDRLTQSMCLVGSTLRAPHGCHSQYMANMGSIASLAMAVIINGNEDDGSNVASGRSSMRLWGLVVCHHTSSRCIPFPLRYACEFLMQAFGLQLNMELQLALQMSEKRVLRTQTLLCDMLLRDSPAGIVTQSPSIMDLVKCDGAAFLYHGKYYPLGVAPSEVQIKDVVEWLLANHADSTGLSTDSLGDAGYPGAAALGDAVCGMAVAYITKRDFLFWFRSHTAKEIKWGGAKHHPEDKDDGQRMHPRSSFQAFLEVVKSRSQPWETAEMDAIHSLQLILRDSFKESEAAMNSKVVDGVVQPCRDMAGEQGIDELGAVAREMVRLIETATVPIFAVDAGGCINGWNAKIAELTGLSVEEAMGKSLVSDLIYKENEATVNKLLSRALRGDEEKNVEVKLKTFSPELQGKAVFVVVNACSSKDYLNNIVGVCFVGQDVTSQKIVMDKFINIQGDYKAIVHSPNPLIPPIFAADENTCCLEWNMAMEKLTGWSRSEVIGKMIVGEVFGSCCMLKGPDALTKFMIVLHNAIGGQDTDKFPFPFFDRNGKFVQALLTANKRVSLEGKVIGAFCFLQIPSPELQQALAVQRRQDTECFTKAKELAYICQVIKNPLSGMRFANSLLEATDLNEDQKQLLETSVSCEKQISRIVGDMDLESIEDGSFVLKREEFFLGSVINAIVSQAMFLLRDRGLQLIRDIPEEIKSIEVFGVQIRIQQLLAEFLLSIIRYAPSQEWVEIHLSQLSKQMADGFAAIRTEFRMACPGEGLPPELVRDMFHSSRWTSPEGLGLSVCRKILKLMNGEVQYIRESERSYFLIILELPVPRKRPLSTASGSGDMMLMMPY
notes: Two differently tagged copies: the bait copy has the HA tag, the prey copy the Myc tag (each copy has one tag only); also called HA-PHYB18; Myc-PHYB18; source: in vitro translated (TNT T7 Coupled Reticulocyte Lysate System), co-expressed; not shown: HA, N-terminal, kept; Myc, N-terminal, kept
fold reduction of the interaction against wild-type PHYB [2]: 5 fold

B3: PHYB18-HA (PHYB D1040V), apoprotein (natural protein, Arabidopsis, UniProt P14713 1-1172, looked up)
chain: MVSGVGGSGGGRGGGRGGEEEPSSSHTPNNRRGGEQAQSSGTKSLRPRSNTESMSKAIQQYTVDARLHAVFEQSGESGKSFDYSQSLKTTTYGSSVPEQQITAYLSRIQRGGYIQPFGCMIAVDESSFRIIGYSENAREMLGIMPQSVPTLEKPEILAMGTDVRSLFTSSSSILLERAFVAREITLLNPVWIHSKNTGKPFYAILHRIDVGVVIDLEPARTEDPALSIAGAVQSQKLAVRAISQLQALPGGDIKLLCDTVVESVRDLTGYDRVMVYKFHEDEHGEVVAESKRDDLEPYIGLHYPATDIPQASRFLFKQNRVRMIVDCNATPVLVVQDDRLTQSMCLVGSTLRAPHGCHSQYMANMGSIASLAMAVIINGNEDDGSNVASGRSSMRLWGLVVCHHTSSRCIPFPLRYACEFLMQAFGLQLNMELQLALQMSEKRVLRTQTLLCDMLLRDSPAGIVTQSPSIMDLVKCDGAAFLYHGKYYPLGVAPSEVQIKDVVEWLLANHADSTGLSTDSLGDAGYPGAAALGDAVCGMAVAYITKRDFLFWFRSHTAKEIKWGGAKHHPEDKDDGQRMHPRSSFQAFLEVVKSRSQPWETAEMDAIHSLQLILRDSFKESEAAMNSKVVDGVVQPCRDMAGEQGIDELGAVAREMVRLIETATVPIFAVDAGGCINGWNAKIAELTGLSVEEAMGKSLVSDLIYKENEATVNKLLSRALRGDEEKNVEVKLKTFSPELQGKAVFVVVNACSSKDYLNNIVGVCFVGQDVTSQKIVMDKFINIQGDYKAIVHSPNPLIPPIFAADENTCCLEWNMAMEKLTGWSRSEVIGKMIVGEVFGSCCMLKGPDALTKFMIVLHNAIGGQDTDKFPFPFFDRNGKFVQALLTANKRVSLEGKVIGAFCFLQIPSPELQQALAVQRRQDTECFTKAKELAYICQVIKNPLSGMRFANSLLEATDLNEDQKQLLETSVSCEKQISRIVGDMDLESIEDGSFVLKREEFFLGSVINAIVSQAMFLLRDRGLQLIRDIPEEIKSIEVFGVQIRIQQLLAEFLLSIIRYAPSQEWVEIHLSQLSKQMADGFAAIRTEFRMACPGEGLPPELVRDMFHSSRWTSPEGLGLSVCRKILKLMNGEVQYIRESERSYFLIILELPVPRKRPLSTASGSGDMMLMMPY
notes: not shown: HA, C-terminal, kept
interaction relative to that of PHYB-HA (GST-PIF3 [3]): ~0.33 fraction of wild type
